Laboratory results reported in patent US10196445.
pKd: −log10 of the molar value.

How the values were obtained:
Assay in all cases: Fc receptor binding, method not stated
[1] = target: CD32-R131 (FcγRIIa) (human) (UniProt P12318)
[2] = target: CD16-V158 (FcγRIIIa) (human) (UniProt P08637)
[3] = target: CD32-H131 (FcγRIIa) (human) (UniProt P12318)
[4] = target: CD64 (FcγRIa) (human) (UniProt P12314)
[5] = target: CD32B (FcγRIIb) (human) (UniProt P31994)
Chain of CD32B (FcγRIIb) (human) (P31994 43-217 limits assumed): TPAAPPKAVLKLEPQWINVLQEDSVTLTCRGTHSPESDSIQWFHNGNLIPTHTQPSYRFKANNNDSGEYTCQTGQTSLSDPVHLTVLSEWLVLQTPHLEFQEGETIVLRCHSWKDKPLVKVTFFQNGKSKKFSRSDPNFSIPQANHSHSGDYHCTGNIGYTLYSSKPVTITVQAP

Chain of CD32-R131 (FcγRIIa) (human) (P12318 34-217 H167R limits assumed): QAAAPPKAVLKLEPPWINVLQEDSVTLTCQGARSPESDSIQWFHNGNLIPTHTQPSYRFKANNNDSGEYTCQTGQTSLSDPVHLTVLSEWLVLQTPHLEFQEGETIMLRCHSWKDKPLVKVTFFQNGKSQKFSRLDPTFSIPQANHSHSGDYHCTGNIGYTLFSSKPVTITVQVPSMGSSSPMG
Chain of CD64 (FcγRIa) (human) (P12314 16-288 limits assumed): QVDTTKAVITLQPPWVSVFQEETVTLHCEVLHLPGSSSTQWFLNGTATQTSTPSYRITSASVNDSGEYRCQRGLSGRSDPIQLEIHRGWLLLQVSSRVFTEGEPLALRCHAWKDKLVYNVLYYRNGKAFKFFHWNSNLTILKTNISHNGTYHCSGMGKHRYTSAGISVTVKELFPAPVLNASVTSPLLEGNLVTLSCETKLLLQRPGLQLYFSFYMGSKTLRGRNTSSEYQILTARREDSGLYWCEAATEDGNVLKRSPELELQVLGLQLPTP
Chain of CD16-V158 (FcγRIIIa) (human) (P08637 17-208 F176V limits assumed): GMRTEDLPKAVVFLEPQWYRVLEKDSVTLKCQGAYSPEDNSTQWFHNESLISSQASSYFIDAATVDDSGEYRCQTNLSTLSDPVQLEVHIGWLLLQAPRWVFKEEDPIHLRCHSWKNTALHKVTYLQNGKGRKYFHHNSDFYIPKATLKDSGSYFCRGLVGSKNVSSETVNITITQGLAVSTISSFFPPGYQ
Chain of CD32-H131 (FcγRIIa) (human) (P12318 34-217 limits assumed): as the sequence (P12318 34-217 H167R limits assumed) above, with R134H counted along it

“IgG1f antibody (human IgG1, 214R/356E/358M allotype)” gave a pKd [1] of 6.02, a pKd [2] of 7.01 and a pKd [3] of 6.28. For the same substance, the pKd [4] was 9.70.

Substance “GASDALIE modified IgG1f antibody (human IgG1, 214R/356E/358M allotype; G236A, S239D, A330L and I332E)” has a pKd [1] of 7.00, a pKd [5] of 6.05 and a pKd [4] of 9.22.

With “non-fucosylated IgG1f antibody (human IgG1, 214R/356E/358M allotype)” the pKd [1] was 6.15, the pKd [2] was 7.96 and the pKd [3] was 6.25. For the same substance, the pKd [4] was 10.00.
